# Results as given in the DeepSol protein solubility set.
# Assay: soluble on expression in E. coli; label from the status in PepcDB or PDB records
row,Sequence,soluble on expression in E. coli
1,MSLYTINIIPRVLHFKQPAGTSRGSYTTRNVWYIHLSSIECPGRVGVGECAPLPKLSCDDLPDYEQVLRSACQRLEQTGELDIESLRGYPSILFGLETALRHYETQSWALWDTPFSRGEVGIPINGLIWMGSFDRMLQQIEVKMQAGYRCIKLKIGAINFEEELALLRHIRAHYSAREIELRVDANGAFSPADAMDKLNRLAELDLHSIEQPIRAGQWEEMARLAAESPLPIALDEELIGCNALERKRELLAAIHPRYIILKPSLHGGISGGNEWIAEAEKQHIGWWITSALESNIGLNAIAQWCATFRNPLPQGLGTGLLFTDNVEMPLEIRKDCLWFCKEGHHHHHH,soluble
2,MKRLRCIREIERQRGTRVIAMIHRQEALTFLGIPIYKFITIEDSEEILRAIRLTPEDMPIDLIIHTPGGLALASEQIALALKEHKAKTTVIIPHYAMSGGSLIALAADEIIMDKNAVMGPVDPQIGQYPAASILEAYYRKGEKVSDETLILVDISKKAIKQMEEFVYELLKDKYGDEKAKEIAKKLTSGTW,not soluble
3,MFGGDTLYELRCSLQLAETEREGGFSPHISPFTAVNDLGHLLGRAGFNTLTVDTDEIQVNYPGMFELMEDLKGMGESNCSWNRKALLHRDTMLAAAAVYREMYRNEDGSIPATFQIYHMIGWKYHDSQARPAERGSATVSFGELAKLNDVMSHEKK,soluble
4,MGRFPSWVLVADWPAPPGVMVLSTLRGGPGVSVAPFDRLNLGNCSGVAGDAPVCVERNRSRLVEMLGLPSVPHWLRQVHGVEVLRVDALLQSIARVVEPTADAAVTSVVGAVLAILTADCLPVVLAAVDGSEIGVVHAGWRGLADDVLGRTVAALRTSPEYLQAWLGPAAGPQAYEVGVDVYAAFVERDSGAACAFSVTRPGHWYVDLYALARQRLMRAGLSAVSIYGGGLCTISDPQRFFSHRRDRRSGRFATLAWIGC,soluble
5,SNAMTGTLLSFGHGYTARVLSRALAPQGWRIIGTSRNPDQMEAIRASGAEPLLWPGEEPSLDGVTHLLISTAPDSGGDPVLAALGDQIAARAAQFRWVGYLSTTAVYGDHDGAWVDETTPLTPTAARGRWRVMAEQQWQAVPNLPLHVFRLAGIYGPGRGPFSKLGKGGIRRIIKPGQVFSRIHVEDIAQVLAASMARPDPGAVYNVCDDEPVPPQDVIAYAAELQGLPLPPAVDFDKADLTPMARSFYSENKRVRNDRIKEELGVRLKYPNYRVGLEALQADAET,soluble
6,MSKIFEDNSLTIGHTPLVRLNRIGNGRILAKVESRNPSFSVKCRIGANMIWDAEKRGVLKPGVELVEPTSGNTGIALAYVAAARGYKLTLTMPETMSIERRKLLKALGANLVLTEGAKGMKGAIQKAEEIVASNPEKYLLLQQFSNPANPEIHEKTTGPEIWEDTDGQVDVFIAGVGTGGTLTGVSRYIKGTKGKTDLISVAVEPTDSPVIAQALAGEEIKPGPHKIQGIGAGFIPANLDLKLVDKVIGITNEEAISTARRLMEEEGILAGISSGAAVAAALKLQEDESFTNKNIVVILPSSGERYLSTALFADLFTEKELQQ,soluble
7,KFGIARSGAMDEDALRMANILLGNKQDEAGIELCLKGGKYEFLDENYFVLSGAEFEAKLDNQKIKTCKVYQANKGDILELDLAKIGFRGYLCVAGGFEVKSFLNSKSSDAKMGAGVFEGRALQKDDILNTHNTFIPFNLEARECENPLFKSPKEPIIRVILGTNEDAFTQKGIETFLNTTYKVGLKSDRMAIYAESSESIEHKNSADIISDPAVFGSIQVPKSGIPIILMAGRQSTGGYTKIATVIENDLSLLAQAKLGSSFKFQSISMQEALELYKQREMK,not soluble
8,MGSDKIHHHHHHMTKIESLGSVKRKAVNISPEDLIKTEFLQPGNNFPLVIKPNVKGVDLQNWAKNNREFLKAELLKYGAILFRDFKVKSIEEFEQIIAAICGEAMEYRYRASPRTQVGGRIYTSTDYPAEQSIFPHNEHAYSPTFPLKIFFFCMSPAAQGGETPIGSCRKVFERIHPDIRDRFIQKKVMYMRNFGDGFGLPWQTVFQTTDKTKVEEYCKINGIEVEWKADNRLRTRQVGPVVLKHPQTGEMVWFNHATFFHVSTLESTIRDSLLTNLPEEDLPTNTYYGDGSAIEPSVLAELRAAYQQEMVTFSWEKGHVLMLDNMLSIHARQPFVPPRKILVGMAEAHTPIPLG,not soluble
9,SGQLLPQGAYREVPQYWKQAAELINREGAHTRTLVLPAASFARQTWGWTRDEPLQPLLQVPWVVRDAVPLVPPETIRGLDGVLSVVDKGAVDHLGDQLRRIGVGIVVIRHDLVAPHSGDATLTLMRSEFPDIKVHTFGSGKERVDVAILDRQAHGYLTDKLTRVAGGGEALSLLGPGDFILSDSDAEIVTDTPMLAARNYGAARRAISAPLATEAEGKDVGNPVRDYPSAARATRVVERGGHVVASSSAADATAFGGADPTRSITAAVDNDPDTAWFAAPGDRHPWLELQAESPDPHLELRITGKAGKVIIRSNNAHVAADMRPGVPTTIRIPGGATNRVRIEVAPGMGIASAQLIHSPITRVPTLPPAGPSAHTFLFQKVMVDTGLLTRGFETARPIEVTLSASHCERTITIDQVTYACGERFLLPAGYHELSTRSDWVRLSGDGKAGFVDLNGDSVFVTTQAANRGMRAFIGDHELTPISVNAGGQGFIVPKALATDDVLDVIRFEFAGEHTYRR,not soluble
10,MSLIDKSSEIARFSGKGILITPKTLEKPLLKWEKLEIILYKDKIVFEFVDKTIEVGVEDIEDVGAELPKKVIDIAKSTLEDITYHSSIIIKSKEFGNVMVGFAPETSIYGKAPIDNFLRKLFYILLNKKEVKILYNAGENSENTKWENGFLTFIKKRIKDGLVTKIEYRLVVEILDNEDSKIYDIFSNIKDVEIEEKDVDGEIEPVLKILQVKDGKDIISYLYTKDKKVRLFILRYMVILLDYKYIGILRYLQETVEEGHHHHHH,soluble
11,MARKTKPLTDTEIKAAKPKDADYQLYDGDGLTLLIKSSGSKLWQFRYYRPLTKQRTKQSFGAYPAVSLSDARKLRAESKVLLAKDIDPQEHQKEQVRNSQEAKTNTFLLVAERWWNVKKTSVTEDYADDIWRSLERDIFPAIGDISITEIKAHTLVKAVQPVQARGALETVRRLCQRINEVMIYAQNTGLIDAVPSVNIGKAFEKPQKKNMPSIRPDQLPQLMHTMRTASISMSTRCLFMWQLLTITRPAEAAEARWDEIDFNASEWKIPAARMKMNRDHTVPLSDGALAILEMMKPLSGGREFIFPSRIKPNQPMNSQTVNAALKRAGLGGVLVSHGLRSIASTALNEEGFPPDVIEAALAHVDKNEVRRAYNRSDYLEQRRPMMQWWADLVKAADSGSIVLTHLSKIRLVG,soluble
12,MRAIVLLSVLISCYLVIAEDYYELLGVERDADDRTIRKAFKKLAIKKHPDRNTDDPNAHDEFVKINKAYEVLKDENLRKKYDQFGEKGLEDGFQGGNNYQSWQFYNDNFGIYDDDQEIVTLNRADFQRMVSDSNEIWFINFYSTYCSHCHQLAPTWRKFAREIEGTIRVGAVNCAEDPQLCQSQRVNAYPSLVFYPTGEFYQGHRDVELMVDFAIQRLKSEVLHLNSENWKALSEDWEPYNRLPWVVDMCGGDHIDCLSSTTRRKLSSMLDGLANVATIDCNAEEALCSKFNPITSGVMWFPARKLVKKSQINIESMDAQEISKSVIQYLDELEDISVESLQRLLEGNDPDEPIAVWMLANDAQSTERKDFRRLPALVTTQIFKFDCSKSSEICDELLDKTKLPQFMVFKTTGGYEIDYAGSKDFHAASTFIREASKSHIHVLNRDSYEYAISGGEFYIIDYFAPWCPPCMKLLGEYRRFHTATSEDSMLHTVAIGSLDCVKYKDLCQQAGVQSYPTSIVYTPDGKTHKMVGYHNVDYILEFLDNSLNPSVMEMSPEQFEELVMNRKDEETWLVDFFAPWCGPCQQLAPELQKAARQIAAFDENAHVASIDCQKYAQFCTNTQINSYPTVRMYPAKKTKQPRRSPFYDYPNHMWRNSDSIQRWVYNFLPTEVVSLGNDFHTTVLDSSEPWIVDFFAPWCGHCIQFAPIYDQIAKELAGKVNFAKIDCDQWPGVCQGAQVRAYPTIRLYTGKTGWSRQGDQGIGIGTQHKEQFIQIVRQQLKLDEHDEL,not soluble
13,MGSDKIHHHHHHMTAPRELTAETRCGSSMDSSPPTATDDINSADIALRVSALSKTYRIYGRSQDRLLQGLWGNRKQLYREFRALDSISFEIRRGETFGIIGPNGSGKSTLLQLIAGTLTPTQGEIYIKGKVSALLELGAGFNGEFTGRENIRMAASIAGLNPGEIGQRHECIAAYADIGDFLDQPVKTYSSGMYVRLAFAVAISVEPEVLIIDEALAVGDMEFQAKCMVTLKQMQERGTTILFVSHDVGAVSALCKRTLYLKHGRALEIGPTPDVVARYIREVQEANNRKINVTVSENNDSRTTSPSDASETGIAPSHRTASLTSAEAASGAASGFLTAASPFRSVEKKHLARFAENANHCRSGTGDVRVIYAEMTDDEGLPVRSAEFGQSVLIRIIVEAARTCTFSVNYKICDKNRTPVIGADFLMQRQALLTLEPSQQAEALYRTSLPLTDGRYSLRISLTHPVNAHQQALFFDIVEIAHVFEVLPNPTAKFWTQVYLPNTLDVRVLE,not soluble
14,MEAIDMPYKITALQPFGVIVEPKHAPIHVNELDIDELRELFLREQLVLLRGFETFEHSEQFADYCERWGEVSVWPFGRVLDLVQKEDPGDHIFDSSYMPMHWDGMYRPQVPEYQIFQCVKAPLPGHGGRTTFSHTMLALQHAPQPDLELWQQVTGHYQRKMEFYHSKTVSPIVMQHPYRDYQVIRYNEPHFEENGDLLNPPDVSLSGITPEQAIEFHKSLRRALYDPRNFYAHEWQTGDIVITDNFSLLHGREAFTSHTPRHIRRVQVLSNPPYNNPSLESYQCPQK,not soluble
15,MLQGDITMRYNSLNSYLKEKFGCKIYKLALSGGLSCPNRDGTISTGGCIFCSNGGSGDFAADKMLSITEQIESAKNRVSAKIKNGKYIAYFQSFTNTYGDIDYLRSIFTEAINHPDIVALSIGTRPDCLPDEVLNLLGELNKIKPVWVELGLQTIHENTAKYINRGYTLDVFNTAVNNLNKINVDVIVHLIIGLPFESKEDILESVKYVSSMNISGIKLQLLHVLKNTPLEKEYSLNKFEVLSMEEYVNIIAECLRYIPKSIVIHRLTGDGPKSILVAPLWSGNKKAVLNYMNKRFNELNVIQGSLCS,not soluble
16,MDFKSSDAIRGPRTEDHLPHTAQAAVKIVIVGGFGVGKTTMVGSVSEIRPLTTEETMTQMGIGVDDNYGSESKTATTVAMDFGRISITEQLVLYLFGTPGQERFWFLWNGLFEGALGAVVLIDTRRLEVSFDVIGRLEERGVPFVIAVNDFPDAPRYPVEDLRGALDLTEDIPIVKCDARRRASSREVLMTLMHFLHSLAVSKTSVLEHHHHHH,not soluble
17,AEIFATHLEAIARHTGPVRTLIDLGAGDCAKAERLLPCLRPQRYVPIDISTDFLGQAVARVRRAHPWLDVLPLGRDLNAGLDLPEAIDAQGRLFFYPGSSIGNLDPDAALALLASLRAQAGVSGGLLIGVDRVKARAIVEPAYDDALHLTGAFNLNLLRHVNSVLGSDFDVRDWTHVALYNEPRSRMEMHLQARSDIRVRWPGGQRRFQADERIHTENSYKYTIERFVDLLRRAGYGDIRYWSDARDWFSVFSARA,not soluble
18,MDLASLRAQQIELASSVICEDRLDKDPPDLIAGADVGFEQGGEVTRAAMVLLKYPSLELVEYKVARIATTMPYIPGFLSFREYPALLAAWEMLSQKPDLVFVDGHGISHPRRLGVASHFGLLVDVPTIGVAKKRLCGKFEPLSSKPGALAPLMDKGEQLAWVWRSKARCNPLFIATGHRVSVDSALAWVQRCMKGYRLPEPTRWADAVASERPAFVRYTANQPLEHHHHHH,not soluble
